Molecular target: SuperFi-Cas9 (7-D Cas9) 7-D: seven RuvC loop residues shown in FIG. 4b each mutated to Asp (individual residues not listed in text) (Streptococcus pyogenes) (UniProt Q99ZW2)
Assay: cleavage_in_vitro
Conditions: PAM TGG, 10 mM Mg2+, 37 C

Which activity (kobs +/- 0.0002, amplitude 8.4 nM, 500-fold slower than on-target) does the source give for “GACGCAUAAAGAUGAGACGC / AGCTGACGTTTGTACTCCAGCGTCTCATCTTTATGCCAGAGCAGAGATTTCTGCT / AGCAGAAATCTCTGCTCTGGCATAAAGATGAGACGCTGGAGTACAAACGTCAGCT [sgRNA ; 18-20 MM DNA]” here?
The activity was 0.004 s⁻¹.

For “GACGCAUAAAGAUGAGACGC / AGCTGACGTTTGTACTCCAGCGTCTCATCTTTATGCGTCAGCAGAGATTTCTGCT / AGCAGAAATCTCTGCTGACGCATAAAGATGAGACGCTGGAGTACAAACGTCAGCT [sgRNA ; On-target DNA]”, which activity (kobs +/- 0.1, amplitude 7.7 nM, 6.3-fold preference over 18-20 MM in competition) is on record?
The activity was 2 s⁻¹.

From patent publication US20250043313
